Reference: patent publication US20250222125A1, “Anti-FGFR2b Antibodies, Conjugates and Methods of Use” (BeiGene, Ltd., priority 2024, published 2025)

B1: BGAm1823: parental murine anti-FGFR2b antibody; VH SEQ ID NO: 28, VL SEQ ID NO: 30 (antibody, V domains shown)
VH: EVQLQQSGAELVKPGASVKISCKASGYAFSIYWMNWVKQRPGKGLEWIGQIYPENGDTNYNGKFKGKATLTADKSSSTAYMHLSSLTSEDSAVYFCARGGFDYWGQGTTLTVSS
VL: NIVMTQSPASLSASVGETVTITCRASENIYSNLAWYQQKQGKSPQLLVYTATNLADGVPSRFSGSGSGTQFSLKINSLQPEDFGSYYCQHFYGILYTFGSGTRLEIK
modifications: Synthetic: VH AA; Synthetic: VL AA
B2: BGAh9179: humanized anti-FGFR2b IgG1 antibody from murine BGAm1371; VH SEQ ID NO: 21, VL SEQ ID NO: 22 (antibody, V domains shown)
VH: QVQLVQSGAEVKKPGASVKVSCKASGYTITDTYIHWVRQAPGQGLEWMGRIDPAEGNTMFASEFQGRVTMTADTSTSTVYMELSSLRSEDTAVYYCARSKIHYDYDEGFAYWGQGTLVTVSS
VL: DIVLTQSPDSLAVSLGERATINCRASESVDDYGYSFLHWYQQKPGQPPKLLIYRASNLESGVPDRFSGSGSGTDFTLTISSLQAEDVAVYYCQQSNQNPRTFGGGTKVEIK
modifications: Synthetic: VH AA; Synthetic: VL AA

What was measured:
human FGFR2b [1] = target: T1, human FGFR2b (Homo sapiens, UniProt P21802); experiment: SPR affinity determination, human FGFR2b (Example 9); assay type: binding; conditions: for Kd: kd/ka
T1 sequence (P21802 22-822 isoform P21802-3 limits assumed): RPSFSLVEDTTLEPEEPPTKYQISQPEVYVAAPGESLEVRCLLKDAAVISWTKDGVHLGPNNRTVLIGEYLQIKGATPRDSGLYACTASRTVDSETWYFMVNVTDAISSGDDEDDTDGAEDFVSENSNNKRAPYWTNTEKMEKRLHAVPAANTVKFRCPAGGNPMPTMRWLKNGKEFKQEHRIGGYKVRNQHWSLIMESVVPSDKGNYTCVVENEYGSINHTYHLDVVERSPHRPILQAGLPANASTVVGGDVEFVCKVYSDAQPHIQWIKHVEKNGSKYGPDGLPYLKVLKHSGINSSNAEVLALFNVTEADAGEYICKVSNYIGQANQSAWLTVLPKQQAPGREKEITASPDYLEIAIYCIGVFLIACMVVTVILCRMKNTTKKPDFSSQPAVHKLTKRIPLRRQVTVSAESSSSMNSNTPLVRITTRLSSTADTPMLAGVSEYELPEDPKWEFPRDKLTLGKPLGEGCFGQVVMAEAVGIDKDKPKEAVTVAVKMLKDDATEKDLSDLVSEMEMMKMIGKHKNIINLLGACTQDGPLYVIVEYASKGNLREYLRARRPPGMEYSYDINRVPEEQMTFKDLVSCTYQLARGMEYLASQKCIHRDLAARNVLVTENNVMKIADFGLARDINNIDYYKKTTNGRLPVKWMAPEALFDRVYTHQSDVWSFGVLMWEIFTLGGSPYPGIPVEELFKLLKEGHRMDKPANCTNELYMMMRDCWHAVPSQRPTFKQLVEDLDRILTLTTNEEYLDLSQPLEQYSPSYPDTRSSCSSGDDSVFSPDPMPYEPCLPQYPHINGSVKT
Description: (§1) For affinity determination, antibodies were captured by anti-human Fc antibodies, and used in the affinity assay based on surface plasmon resonance (SPR) technology. SPR signals were analyzed to calculate the association rates (ka) and dissociation rates (kd) by using the one-to-one Langmuir binding model (BIA Evaluation Software, GE Life Sciences). The equilibrium dissociation constant (KD) was calculated as the ratio of kd/ka. Rmax represents the maximal feasible SPR signal generated by an interaction between a ligand-analyte pair and is represented in response units (RU). BGAh9239 and BGA9179 show similar binding profiles to human FGFR2b and cyno FGFR2b, and are similar to their parental antibodies BGAm1823 and BGAm1371, respectively.

Cyno FGFR2b [2] = experiment: SPR affinity determination, cyno FGFR2b (Example 9); assay type: binding
Description: as §1

human FGFR2b [3] = target: T1, human FGFR2b; experiment: FACS binding to native FGFR2b on Expi293 cells, human FGFR2b (Example 10); conditions: Expi293 cells overexpressing human FGFR2b
Description: (§2) To evaluate the binding activity of anti-FGFR2b antibodies to native FGFR2b on living cells, Expi293 cells were engineered to overexpress human FGFR2b, cyno FGFR2b, mouse FGFR2b, or human FGFR2c. Expi293 cells expressing antigens were seeded in 96-well plates, and were incubated with serially diluted anti-FGFR2b antibodies. Goat anti-human IgG [Alexa Fluor® 647] […] The change of mean fluorescent intensity (MFI) of humanized candidates BGAh9239 and BGAh9179 was measured by flow cytometry. EC50 values for dose-dependent binding to native human FGFR2b, cyno FGFR2b, mouse FGFR2b, and human FGFR2c were determined using sigmoidal dose-response curves of nonlinear fit from GraphPad Prism™.

Mouse FGFR2b = target: T2, Mouse FGFR2b (Mus musculus, UniProt P21803); experiment: FACS binding on Expi293 cells, mouse FGFR2b (Example 10); conditions: Expi293 cells overexpressing mouse FGFR2b
T2 construct: expressed in transfected cells; host or cells: Expi293
T2 sequence (P21803 22-707 isoform P21803-2 limits assumed): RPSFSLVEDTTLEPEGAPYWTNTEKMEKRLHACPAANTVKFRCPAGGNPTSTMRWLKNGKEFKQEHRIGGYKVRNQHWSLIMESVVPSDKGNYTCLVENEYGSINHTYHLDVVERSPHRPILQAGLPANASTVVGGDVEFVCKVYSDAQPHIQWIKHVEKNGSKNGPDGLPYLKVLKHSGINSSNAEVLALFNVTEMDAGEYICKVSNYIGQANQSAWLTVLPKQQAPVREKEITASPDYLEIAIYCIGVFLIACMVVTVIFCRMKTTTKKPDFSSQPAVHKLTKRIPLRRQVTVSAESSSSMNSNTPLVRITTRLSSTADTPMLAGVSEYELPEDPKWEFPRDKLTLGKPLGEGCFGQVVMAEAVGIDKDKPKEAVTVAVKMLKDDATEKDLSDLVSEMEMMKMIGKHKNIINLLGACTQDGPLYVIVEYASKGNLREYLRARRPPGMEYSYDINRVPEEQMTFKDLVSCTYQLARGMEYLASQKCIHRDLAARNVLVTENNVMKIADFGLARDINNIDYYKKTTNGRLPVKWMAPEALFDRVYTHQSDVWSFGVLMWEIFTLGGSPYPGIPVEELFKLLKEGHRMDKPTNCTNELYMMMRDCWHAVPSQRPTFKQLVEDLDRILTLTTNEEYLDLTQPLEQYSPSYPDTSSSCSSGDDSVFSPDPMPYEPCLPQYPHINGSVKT
Description: as §2

Human FGFR2c [4] = target: T3, Human FGFR2c (Homo sapiens, UniProt P21802); experiment: FACS binding on Expi293 cells, human FGFR2c (Example 10); conditions: for Emax (MFI): Expi293 cells overexpressing human FGFR2c
T3 sequence (P21802 22-821): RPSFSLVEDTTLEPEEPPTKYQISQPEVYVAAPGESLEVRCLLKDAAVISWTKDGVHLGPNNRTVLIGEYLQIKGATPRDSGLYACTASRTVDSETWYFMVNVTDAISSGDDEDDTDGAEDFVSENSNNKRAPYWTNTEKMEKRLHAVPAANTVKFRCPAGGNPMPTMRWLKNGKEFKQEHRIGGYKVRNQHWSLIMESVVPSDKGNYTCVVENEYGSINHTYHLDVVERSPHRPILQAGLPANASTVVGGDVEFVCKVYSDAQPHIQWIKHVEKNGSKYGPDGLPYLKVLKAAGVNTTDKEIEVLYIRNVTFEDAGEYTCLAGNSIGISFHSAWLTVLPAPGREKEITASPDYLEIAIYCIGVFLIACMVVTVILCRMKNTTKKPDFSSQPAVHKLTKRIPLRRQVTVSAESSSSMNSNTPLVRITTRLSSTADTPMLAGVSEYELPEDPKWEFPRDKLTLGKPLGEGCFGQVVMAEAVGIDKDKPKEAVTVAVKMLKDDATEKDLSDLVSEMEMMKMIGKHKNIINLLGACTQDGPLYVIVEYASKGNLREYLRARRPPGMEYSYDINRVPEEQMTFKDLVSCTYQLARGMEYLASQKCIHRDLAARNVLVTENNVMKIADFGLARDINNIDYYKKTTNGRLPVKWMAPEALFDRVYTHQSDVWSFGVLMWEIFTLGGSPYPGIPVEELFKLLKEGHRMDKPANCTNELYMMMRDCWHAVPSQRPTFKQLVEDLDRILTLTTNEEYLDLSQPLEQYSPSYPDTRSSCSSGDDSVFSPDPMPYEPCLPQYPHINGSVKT
Description: as §2

human FGFR2b [5] = target: T1, human FGFR2b; experiment: ELISA binding to recombinant human FGFR2b (Example 11)
Cyno FGFR2b [6] = experiment: ELISA binding to recombinant cyno FGFR2b (Example 11)
Human FGFR2c [7] = target: T3, Human FGFR2c; experiment: ELISA binding to recombinant human FGFR2c (Example 11); conditions: for Emax (A450): human FGFR2c; for binding to human FGFR2c: in words
BaF3_hFGFR2b OE cells = experiment: Ligand-induced proliferation inhibition assay in BaF3_hFGFR2b OE cells; assay type: cell-based; conditions: antibody 10 μg/ml, heparin 5 μg/ml, 72 hours
Description: The inhibition activity of antibody on ligand-induced cell proliferation was evaluated in an FGFR2b engineered BaF3 cell line system (BaF3_hFGFR2b OE). BaF3 cells are dependent on interleukin-3 (IL-3) for growth. The BaF3 system allows for testing of kinases and kinase inhibitors. Some protein kinases can render BaF3 cells to be independent of IL-3, whereas kinase inhibitors antagonize this effect. Cells were seeded in 96-well plates at 30,000 cells/well in RPMI-1640 medium containing 10% fetal bovine serum. Anti-FGFR2b antibodies at a concentration of 10 μg/ml were added to the assay plates. Recombinant human FGF7 or FGF10 protein (40 ng/ml) in the presence of heparin (5 μg/ml) was added to the assay plates. The plates were incubated at 37° C., 5% CO2, 95% humidity in an incubator for 72 hours. Following incubation, 50 μl Cell Titer Glo reagent was added to each well and the plates were mixed for 1 min and then incubated at RT for 10 min. Luminescence signals were detected and recorded.
The Ba/F3 system is used to investigate downstream oncogenic signaling pathways and the susceptibility of driver variants to therapeutics. Driver-addicted Ba/F3 cells die when the driver-engaged signaling pathway is inhibited, and this effect can be rescued by re-introduction of […].
FIGS. 6 and 7 show the results of Ba/F3 proliferation assays. The net growth on Ba/F3 cells overexpressing FGFR2b is reported after treatment with anti-FGFR2b antibodies of the present disclosure. Normal Ba/F3 cells die shortly after withdrawal of exogenous […]. […] Comparator BGA2311 binds at the N-terminus and is not considered to be a ligand blocker. Thus, BGAm1371 may partially block the FGFR2b signaling pathway, such as the signaling pathway mediated by FGF7.

[8] = test system: phosphorylated FGFR in SNU-16 cells; experiment: Inhibition of FGFR2 signaling in SNU-16 cells (Western blot of pFGFR); assay type: cell-based; conditions: antibody 10 μg/ml, 2 hours; for FGF10-induced FGFR phosphorylation: FGF10 10 ng/ml
Description: Inhibition of the FGFR2 signaling pathway by the humanized antibodies was investigated. SNU-16 cells were grown in RPMI-1640 medium with 10% FBS, collected and washed twice with free medium and then seeded in 12-well plates at 1.5E6 cells/well in serum-free RPMI-1640. The plates were incubated at 37° C., 5% CO2, and 95% humidity in an incubator overnight. Anti-FGFR2b antibodies at a concentration of 10 μg/ml were added to the assay plates. Recombinant human FGF7 or FGF10 protein (10 ng/ml) in the presence of heparin (5 μg/ml) was added to the assay plates. The plates were incubated in a 37° C., 5% CO2, 95% humidity incubator for 2 hours. Following 2 hours incubation, cells were collected and washed twice with cold PBS. NP40 lysis buffer containing 1×PMSF and 1× Protease plus phosphatase inhibitors were added to the cell pellets. The mixture was pipetted up and down to suspend the pellet. The mixture was inverted gently and each placed for 10 minutes on ice, for a total of 30 minutes. The mixture was centrifuged at 12000× rpm for 10 minutes to pellet the cell debris. The supernatant was transferred to a new tube to quantify total protein concentration by BCA Kit. The protein samples were then split and stored at −80° C. for further Western blotting to detect the expression of pFGFR and total FGFR2.
Western blotting procedure: The completely thawed protein samples were mixed with 4×SDS loading buffer and were heated for 10 min at 37° C. Then the mixtures were centrifuged at ˜3500×rpm for 5 min. Equal amounts of proteins were loaded into an SDS-PAGE gel, whereafter proteins were transferred to PVDF membranes using iBlot. The membranes were then subjected to Western blotting analysis, focusing on phosphorylated FGFR and total FGFR2.

[9] = target: T4, soluble human FGFR2b proteins (Homo sapiens, UniProt P21802); experiment: SPR binding kinetics (Biacore 8K, Example 5); conditions: room temperature
T4 construct: soluble human FGFR2b proteins (his tag, in-house generated); His tag; made in house
T4 sequence (P21802 22-378 isoform P21802-3 limits assumed): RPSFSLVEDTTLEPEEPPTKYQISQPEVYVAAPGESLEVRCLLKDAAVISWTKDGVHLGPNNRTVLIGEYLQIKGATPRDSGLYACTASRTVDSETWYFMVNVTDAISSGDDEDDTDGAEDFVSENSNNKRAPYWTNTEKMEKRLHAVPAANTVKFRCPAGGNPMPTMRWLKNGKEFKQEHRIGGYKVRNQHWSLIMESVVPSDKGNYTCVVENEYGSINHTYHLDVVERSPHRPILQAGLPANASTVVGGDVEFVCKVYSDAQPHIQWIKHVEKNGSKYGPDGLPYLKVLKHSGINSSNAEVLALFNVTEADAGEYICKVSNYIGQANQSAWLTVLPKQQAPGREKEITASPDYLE
Description: The binding affinity and kinetics of purified anti-FGFR2b antibodies were determined by surface plasmon resonance (Biacore 8K, GE Life Sciences) at room temperature. Briefly, mouse anti-human IgG Fc antibody was immobilized via amine coupling onto a activated CM5 biosensor chip (Cat. No. BR100530, GE Life Sciences). Purified monoclonal antibody candidates were flowed over the chip surface and captured by anti-human IgG antibody. Then a serial dilution of soluble human FGFR2b proteins (his tag, in-house generated) were injected over the antibodies captured surface and changes in surface plasmon resonance signals were analyzed to calculate the association rates (kon) and dissociation rates (koff) by using the one-to-one Langmuir binding model (BIA Evaluation Software, GE Life Sciences). The equilibrium dissociation constant (KD) was calculated as the ratio koff/kon.

Row | Molecule | Rmax (human FGFR2b [1]) | ka (human FGFR2b [1]) | kd (human FGFR2b [1]) | Kd (human FGFR2b [1]) | ka (Cyno FGFR2b [2]) | kd (Cyno FGFR2b [2]) | EC50 (human FGFR2b [3]) | Emax (MFI) (human FGFR2b [3]) | EC50 (Mouse FGFR2b) | Emax (MFI) (Mouse FGFR2b) | Emax (MFI) (Human FGFR2c [4]) | EC50 (human FGFR2b [5]) | Emax (A450) (human FGFR2b [5]) | Emax (A450) (Cyno FGFR2b [6]) | Emax (A450) (Human FGFR2c [7]) | binding to human FGFR2c (Human FGFR2c [7]) | FGF10-induced FGFR phosphorylation [8] | also measured
1 | B1 | 85.7 RU | 7.63E+04 M^−1S^−1 | 1.85E−03 S^−1 | 24.2 nM | 7.35E+04 M^−1S^−1 | 1.80E−03 S^−1 | 2.12 nM | 3092441 MFI | 3.37 nM | 5194795 MFI | 22634 MFI | 0.0442 nM | 2.952 A450 | 2.996 A450 | 0.116 A450 | no detectable binding | down-regulation of phosphorylated FGFR | inhibition of FGF7-induced BaF3_hFGFR2b cell proliferation (BaF3_hFGFR2b OE cells; FGF7 40 ng/ml): potently inhibit; inhibition of FGF10-induced BaF3_hFGFR2b cell proliferation (BaF3_hFGFR2b OE cells; FGF10 40 ng/ml): potently inhibit; FGF7-induced FGFR phosphorylation ([8]; FGF7 10 ng/ml): down-regulation of phosphorylated FGFR
2 | B2 | 38.3 RU | 8.16E+04 M^−1S^−1 | 1.78E−03 S^−1 | 21.8 nM | 8.37E+04 M^−1S^−1 | 1.72E−03 S^−1 | 3.29 nM | 2977577 MFI | 4.25 nM | 5145011 MFI | 21749 MFI | 0.0518 nM | 2.993 A450 | 2.953 A450 | 0.086 A450 | no detectable binding | little or no down-regulation | ka ([9]; antibody captured): 80600 M⁻¹ s⁻¹; kd ([9]; antibody captured): 0.00112 s⁻¹; Kd ([9]; koff/kon): 13.9 nM; binding to native human FGFR2c (Human FGFR2c [4]; living Expi293 cells, in words): no detectable binding
